In general, Km refers to the concentration of substrate that gives half-maximal velocity. As usually defined, the kcat is the number of substrate molecules converted per active site and unit of time at saturation. For orientation: kcat/Km means the turnover number divided by the Michaelis constant.

What all share (test): purified protein, by the assay type
Substrate in data set [1]: O=C(O)c1cc(=O)[nH]c(=O)n1[C@@H]1O[C@H](COP(=O)(O)O)[C@@H](O)[C@H]1O
In kind it is biochemical, Plasmodium falciparum. The conditions noted are these: 25° C., pH 8.0, 25.0 °C. Here is the method:
(§1) Expression and Purification of PfOPRT and HsOPRT. The pDEST14 vectors encoding the two OPRT genes were transformed into BL21-AI E. coli competent cells and grown in LB+Amp (100 μg mL^−1) at 37° C. to an OD600 of 0.6. Protein expression was induced by adding 0.02% L-arabinose with overnight growth at 37° C. Cells were harvested by centrifugation at 4° C., weighted and resuspended in lysis buffer (20 mM Tris-HCl, 500 mM NaCl and 5 mM Imidazole, pH=7.9, 3 mL/gram cell pellet). Lysozyme (100 μg mL^−1), DNase I (10 μg mL^−1) and protease inhibitor (1 tablet/8 grams of cells) (Roche Applied Science, Indianapolis, Ind.) were added to the solution. Following disruption in a French Press, cell lysate was centrifuged at 30,000 g for […] at 4° C. […] The 6×His-OPRTs were eluted with a gradient of imidazole (20 mM ˜500 mM). The OPRT bands were visualized on SDS-PAGE gels and fractions with high purity were pooled, made to 10% glycerol and 10 mM β-ME (final concentration), concentrated and dialyzed overnight at 4° C. to remove imidazole. His-tags were removed during dialysis by the presence of thrombin (1 unit/0.1 mg). His-tag free OPRTs were purified by Superdex 200 26/60 Gel filtration column, concentrated and stored at −80° C. […] Reactions were monitored by the absorbance increase at 295 nm to give an extinction coefficient of 3.67 mM^−1 cm^−1.

Substrate in data set [2]: O=C(O)CP(=O)(O)O
It counts as biochemical, Plasmodium falciparum. The conditions noted are these: other: PA as slow substrate. Here is the method:
as §1

Substrate in data set [3]: O=C(O)c1cc(=O)[nH]c(=O)n1[C@@H]1O[C@H](COP(=O)(O)O)[C@@H](O)[C@H]1O
It counts as biochemical, human. The conditions noted are these: 25° C., pH 8.0. Here is the method:
as §1

Substrate in data set [4]: O=C(O)CP(=O)(O)O
The conditions noted are these: other: PA as slow substrate.

Setting [5] is: other: OMP with PA (20 mM) as substrate.
Where [6] appears, read: other: OMP with PPi (1 mM) as substrate.

B1: PfOPRT (Plasmodium falciparum 3D7) (protein)
chain: MTTIKENEFLCDEEIYKSFVHLKDKICEERKKKELVNNNIDNVNFNDDDDNNYDDDGNSYSSYIKEMKKLLKVVLLKYKALKFGEFILKSKRKSNYFFSSGVLNNIVSSNIICFLLSELILKNKLSFDYLLGASYKGIPMVSLTSHFLFESKKYSNIFYLYDRKEKKEYGDKNVIVGNLDDDDKDILNLKKKTKNNQDEEKKNIIIIDDVFTCGTALTEILAKLKTYEHLKVVAFIVLLNRNEYEINENNQKIYFKDIFEKRVGIPLYSILSYKDDIQSMI
notes: His6 (thrombin-cleavable) (N, cleaved yes); made in house; host or cells: E. coli BL21-AI
Take B1: the Km in data set [1] (setting [5]) turned out to be 2.90 ± 1.09 µM; in data set [1] (setting [6]), 3.73 ± 1.36 µM; in data set [2], 1590 µM. The kcat was 0.014 ± 0.002 s⁻¹ in data set [1] (setting [5]), 1.96 ± 0.29 s⁻¹ in data set [1] (setting [6]) and 0.023 s⁻¹ in data set [2]. For the same protein, the catalytic efficiency (kcat/Km) in data set [1] (setting [5]) amounted to 4800 M⁻¹ s⁻¹; in data set [1] (setting [6]), 530000 M⁻¹ s⁻¹.

B2: HsOPRT (Homo sapiens) (protein)
chain: MAVARAALGPLVTGLYDVQAFKFGDFVLKSGLSSPIYIDLRGIVSRPRLLSQVADILFQTAQNAGISFDTVCGVPYTALPLATVICSTNQIPMLIRRKETKDYGTKRLVEGTINPGETCLIIEDVVTSGSSVLETVEVLQKEGLKVTDAIVLLDREQGGKDKLQAHGIRLHSVCTLSKMLEILEQQKKVDAETVGRVKRFIQENVFVAANHNGSPLSIKEAPKELSFGARAELPRIHPVASKLLR
notes: This HsUMPase truncation construct only expresses its HsOPRT domain; His6 (thrombin-cleavable) (N, cleaved yes); made in house; host or cells: E. coli BL21-AI
As to B2, in data set [3] (setting [5]), the Km came out at 2.14 ± 0.61 µM, the turnover number (kcat) came to 0.017 ± 0.002 s⁻¹ and the kcat/Km is 7900 M⁻¹ s⁻¹. Moreover, in data set [3] (setting [6]), the Km is 1.55 ± 0.61 µM, the kcat is 0.10 ± 0.01 s⁻¹ and the kcat/Km is 65000 M⁻¹ s⁻¹. Further, in data set [4], the Km was 3840 µM and the kcat was found to be 0.017 s⁻¹.

These data come from patent publication US20110301104A1, “Transition state structure of orotate phosphoribosyl transferases and uses thereof” (priority 2008, published 2011).
